The text below walks through data of patent US20260224724A1, “GLYCOSYNTHASE VARIANTS FOR ANTIBODY-DRUG CONJUGATE ENGINEERING” (OBI Pharma, Inc., priority 2022, published 2026).

One test concerns Herceptin-GlcNAc. As to the kind of experiment: Transglycosylation of glycan-oxazoline to Herceptin-GlcNAc, monitored by HPLC. It counts as biochemical. The settings on record: for 1N-G2S2 (hemi-glycosylated) / 2N-G2S2 (fully glycosylated) / GlcNAc(F) (unreacted acceptor) / 1N-Glycan / 2N-Glycan / GlcNAc(F): acceptor Herceptin-GlcNAc; for 1N-G2S2 (hemi-glycosylated) / 2N-G2S2 (fully glycosylated) / GlcNAc(F) (unreacted acceptor): NSCT-oxa, best conditions (20:1 EndoSz-D234M, 150:1 EndoSd-D232M). As to the method:
(§1) In general procedures, mAb-GlcNAc/mAb-GlucNAc-F (5 mg) was incubated with glycan-oxa with molar ratio 1:20 and 1:150 (mAb-GlcNAc:NSCT-oxa) by EndoSz-D234M (167 μg) or EndoSd-D232M (1002 μg), respectively, at 30° C. for 20 minutes in a MOPS buffer (50 mM, pH 6.7), to final volume 500 μL. There were some slight modifications according to experiment purposes and designs (see result section). HLPC was employed to monitor the transglycosylation efficiency.
(§2) The glycosynthase activity was analyzed by HPLC (Waters e2695) using 2.1×150 mm UPLC Glycoprotein Amide Column (Waters) under two different buffers (Buffer A, ddH2O/0.3% v/v HFIP (1,1,1,3,3,3-Hexafluoro-2-propanol), 0.1% v/v TFA; Buffer B, ACN, 0.3% v/v HFIP, 0.1% v/v TFA) with the gradient as Table 4.
(§3) After ensuring the baseline stability by injection water blank, the process was started by 2 μL sample injection. In the process duration (29 mins), the flow rate was 0.2 mL/min under the column temperature of 65° C. and sample tray temperature of 5° C.

Another test has as its system Herceptin-GlcNAc-F. As to the kind of experiment: Transglycosylation of glycan-oxazoline to fucosylated Herceptin-GlcNAc-F, monitored by HPLC. It counts as biochemical. The settings on record: for GlcNAc(F) (unreacted acceptor) / 1N-G2S2 (hemi-glycosylated) / 2N-G2S2 (fully glycosylated, Herceptin-2N-G2S2F): NSCT-oxa, best conditions; for 1N-G2S2 (hemi-glycosylated) / 2N-G2S2 (fully glycosylated, Herceptin-2N-G2S2F) / 1N-Glycan / 2N-Glycan / GlcNAc(F): acceptor Herceptin-GlcNAc-F. Here is the method:
as §1, §2, §3

B1: EndoSd-D232M: D232M glycosynthase mutant of EndoSd from Streptococcus dysgalactiae subsp. Dysgalactiae, SEQ ID NO 1 (protein, listed as Streptococcus dysgalactiae)
chain: MGTILGTHHDSLISVKAEEKITQVSQTSTSIDDLHYLSENSKKEFKEELSKEKVPEKVKEILSKAQQANKQAQELAEMKVPDKIPMKPLNGPLYGGYFRTWHDKTSDPLEKDKVNSMGELPKEVDLAFVFHDWTKDYSLFWKELATKHVPKLNKQGTRVIRTIPWRFLAGGDNSGIAEDASKYPNTPEGNKALAKAIVDEYVYKYNLDGLDVMIEHDSIPKVNGEASDENLKRSIDVFEEIGKLIGPKGADKSRLFIMDSTYMADKNPLIERGAPYIDLLLVQVYGSQGEQGEFQNDTKSVTKTPEERWQGYSKYIRPEQYMIGFSFYEEKAGSGNLWYDINARKDEDTANGINDDITGTRAERYARWQPKTGGVKGGIFSYAIDRDGVAHQPKQIAEKDKQSVKNNRPLISEITDNIFHSNYSVSKTLKTVMLKDKAYDLIDEKDFPDKALREAVMAQVGTRKGDLERFNGTLRLDNPAIQSLEGLNKFKKLAQLDLIGLSRIIKLDQSVLPANMKPGKDPLETVLETYKKNGKEEPAIIPPVSLTVSGLTGLKELDLSGFDRETLAGIDAATLTSLEKVDISDNKLDLAPKTENRQIFDVMLSTVNNNAGISEQSIKFDNQKPAGNYPQTYGATNLQLPVRQEKIDLQHQLLFGTITNQGTLINSEADYKTYRNQKIAGRNFVDPDYPYNNFKVSHDNYTVKVTDSTLGTTTDKMLATDKEETYKVDFFSPTDKTKAVHTAKVIVGDEKTMMVNLAEGATVIKSENDENAQKVFNGIMEYNPLSFNNKSSIIFEIKDPSLAKYWRLFNDSSKDKKDYIKEAKLEVFTGQLNAEADVKTILEKPDNWVTVSTYSGEEKVFSHSLDNISAKYWRVTVDNKKDQYGYVSLPELQILGYPLPNADTIMKTVTVAKELSQQKDKFPQQLLDESTAKEAVVEASLNSKLFDTGVINTNVEALKNVVDECLAYEKNKETAFKATEDYRAAVNGVKAESVTVEEMAQLKDLIGKAAHLNSKIDAKLADREYDKDLLGLIGELTNITRTVKSFVKHHHHHH
For B1, the “Relative transglycosylation activity of EndoSd mutants” value with Herceptin-GlcNAc (EndoSd-D232M set to 100%, NSCT-oxa donor, best conditions) is 100%. Also, in the test with Herceptin-GlcNAc, the “1N-G2S2 (hemi-glycosylated)” value was found to be 2.11%, the “2N-G2S2 (fully glycosylated)” value is reported as 97.88% and the “GlcNAc(F) (unreacted acceptor)” value is on record as 0%. In addition, the Herceptin-2N-G2S2 generated with Herceptin-GlcNAc (molar ratio 20:1 (NSCT-oxa/antibody), final condition of EndoSz-D234M) is recorded as 46.06%. Moreover, in the test on Herceptin-GlcNAc-F, the “GlcNAc(F) (unreacted acceptor)” value is given as 0%; the “1N-G2S2 (hemi-glycosylated)” value is listed as 3.17%; the “2N-G2S2 (fully glycosylated, Herceptin-2N-G2S2F)” value is 94.75%.

B2: EndoSz-D234M: D234M glycosynthase mutant of EndoSz from Streptococcus equi subsp. Zooepidemicus Sz105, SEQ ID NO 2 (protein, listed as Streptococcus equi)
chain: MVAILAAQHDSLIRVKAEDKLVQTSPSVSAIDALHYLSENSKKEFKEELSKVEKAQPEKLKEIVSKAQQADKQAKTLAEMKVPEKIPMKPLKGPLYGGYFRTWHDKTSDPAEKDKVNSMGELPKEVDLAFVFHDWTKDYSLFWQELATKHVPTLNKQGTRVIRTIPWRFLAGGDHSGIAEDAQKYPNTPEGNKALAKAIVDEYVYKYNLDGLDVMIERDSIPKVNKEESKEGIERSIQVFEEIGKLIGPKGADKSRLFIMDSTYMADKNPLIERGAPYIDLLLVQVYGTQGEKGGFDNANHKAVDTMEERWESYSKYIRPEQYMVGFSFYEEKANSGNLWYDVNVEDDTNPNIGSEIKGTRAERYAKWQPKTGGVKGGIFSYGIDRDGVAHPKKNGPKTPDLDKIVKSDYKVSKALKKVMENDKSYELIDQKDFPDKALREAVIAQVGSRRGNLERFNGTLRLDNPDIKSLEGLNKLKKLAKLELIGLSQITKLDSSVLPENIKPTKDTLVSVLETYKNDDRKEEAKAIPQVALTISGLTGLKELNLAGFDRDSLAGIDAASLTSLEKVDLSSNKLDLAAGTENRQILDTMLATVTKHGGVSEKTFVFDHQKPTGLYPDTYGTKSLQLPVANDTIDLQAKLLFGTVTNQGTLINSEADYKAYQEQEIAGHRFVDSSYDYKAFAVTYKDYKIKVTDSTLGVTDHKDLSTSKEETYKVEFFSPINSTKPVHEAKIVVGEEKTMMVNLAEGATIIGGDADPTNAKKVFDGLLNNDTTTLSTSNKASIIFELKEPGLVKHWRFFNDSKISKADYIKEAKLEAFVGHLEDSSKVKDSLEKSTEWVTVSDYSGEAQEFSQPLNNIGAKYWRITIDNKKSQYGYVSLPELQIIGHRLPEAATVMTTMAAAEELSQQKDKFSQEQLKELEVKVAALKAALDNKMFNADTINASFADVKAYIDKLLADAAGKKTLGKATKEAQPVATDAKEKAESENPKADHHHHHH
Turning to B2, the “Relative transglycosylation activity of EndoSz mutants” value with Herceptin-GlcNAc (EndoSz-D234M set to 100%, NSCT-oxa donor, best conditions) was found to be 100%. Also, the entries for the “1N-G2S2 (hemi-glycosylated)” value in the test on Herceptin-GlcNAc and with Herceptin-GlcNAc-F were 4.8% and 4.00%, respectively. Also, in the test on Herceptin-GlcNAc, the “2N-G2S2 (fully glycosylated)” value came out at 91.85%. For the same molecule, the “GlcNAc(F) (unreacted acceptor)” value in the test on Herceptin-GlcNAc was 3.35%; in the test with Herceptin-GlcNAc-F it was 1.72%. Further, the 1N-Glycan in the test on Herceptin-GlcNAc (glycan G0, 20:1) is on record as 2.58%; in the test with Herceptin-GlcNAc (glycan G2, 20:1) it was 4.52%; in the test on Herceptin-GlcNAc (glycan M3 (40eq)) it was 6.51%; in the test on Herceptin-GlcNAc-F (glycan type G0F), 2.45%; in the test on Herceptin-GlcNAc-F (glycan type G2F), 2.64%; in the test on Herceptin-GlcNAc-F (glycan type M3F), 4.95%. In addition, the 2N-Glycan with Herceptin-GlcNAc (glycan G0, 20:1) stood at 96.50%; in the test on Herceptin-GlcNAc (glycan G2, 20:1), 94.87%; with Herceptin-GlcNAc (glycan M3 (40eq)), 92.37%; in the test on Herceptin-GlcNAc-F (glycan type G0F), 97.55%; in the test on Herceptin-GlcNAc-F (glycan type G2F), 97.14%; with Herceptin-GlcNAc-F (glycan type M3F), 94.44%. The “GlcNAc(F)” value with Herceptin-GlcNAc (glycan G0, 20:1) is reported as 0.91%; in the test on Herceptin-GlcNAc (glycan G2, 20:1) it was 0.61%; in the test on Herceptin-GlcNAc (glycan M3 (40eq)), 1.11%; with Herceptin-GlcNAc-F (glycan type G0F) it was 0.00%; in the test with Herceptin-GlcNAc-F (glycan type G2F), 0.21%; with Herceptin-GlcNAc-F (glycan type M3F), 0.62%. Also, the “2N-G2S2 (fully glycosylated, Herceptin-2N-G2S2F)” value with Herceptin-GlcNAc-F is given as 94.29%.
